Drawing on the supplement of paper PMC12042874, this text covers amyloid nucleation score for 134 substances.

± gives the uncertainty stated by the source.

The data set can be described thus: amyloid nucleation score (Sup35N fusion, yeast selection) (log enrichment); library NNK3; higher = more nucleation; inactive = no reads after selection. A digest of the protocol:
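Peptides of 20 random codons, each fused to Sup35N, were expressed in psi-negative yeast. Cells were induced with 100 μM copper sulfate for 24 hours and grown 7 days at 30°C on medium lacking adenine and uracil, and plasmid inserts before and after selection were Illumina-sequenced. Nucleation scores are DiMSum log enrichments of output over input reads, centred on the mode score of non-aggregating sequences, and sequences under 100 input reads were excluded.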
For the substance PWFNFECL, the amyloid nucleation score result is “inactive”.
Regarding TYTSESWVHLVKYGSLNELE, the amyloid nucleation score result was “inactive”.
On to LVILMSSHIEFLGTYFNEKL, for which the amyloid nucleation score entry was “inactive”.
On to STVQLYSPIQESVVTVFTNK, for which the amyloid nucleation score entry is “inactive”.
As for WKYWIWVFMNATYMDCVGML, the amyloid nucleation score entry is “inactive”.
Regarding LTSESSDEICGGRATSVLCL, the amyloid nucleation score entry was “inactive”.
As to VMNLEPRSHVWYVTVFSHAS, the amyloid nucleation score came out at 1.68 ± 0.096.
The same measure for PCPLRTTVW: “inactive”.
For LKLYQAAL, the amyloid nucleation score entry is “inactive”.
As for STVEENIY, the amyloid nucleation score entry is “inactive”.
On to SYRYNRLYHWVHDLLCSTLV, for which the amyloid nucleation score result was “inactive”.
VIVLNFALLRASLSAGFLMS: the amyloid nucleation score worked out at 0.405 ± 0.28.
For QWKVLLRACHRLEDALCCIS, the amyloid nucleation score result was “inactive”.
Turning to QQSWFTIYDVILYR, the amyloid nucleation score result is “inactive”.
For the substance YTVTASQTYFYSCRDGFAFS, the amyloid nucleation score entry was “inactive”.
Regarding HNASKRMDICKASSVYKWRI, the amyloid nucleation score result was “inactive”.
For LGQFQCQE, the amyloid nucleation score result is “inactive”.
With IELERMNGL, the amyloid nucleation score result was “inactive”.
WLLTM: the amyloid nucleation score entry was “inactive”.
The substance NKVYLGLTKLHSSDPSEMAC displayed an amyloid nucleation score of 2.18 ± 0.067.
Regarding CVVPHPLSLPSD, the amyloid nucleation score result is “inactive”.
The same measure for NWWFPTFVRVFIYEVGLVLK: “inactive”; for CVSMKRN: 2.07 ± 0.067.
With YICVKYEVYNFTFYFVSGFW, the amyloid nucleation score entry was “inactive”.
In the case of VDYFW, the amyloid nucleation score entry was “inactive”.
For the substance CLFSGEGLARKCYSDNS, the amyloid nucleation score entry was “inactive”.
With FDDATEKFIS, the amyloid nucleation score entry is “inactive”.
Next, TRHIGVGRY: “inactive”; FMTVQLLH: 1.85 ± 0.1; RTSLGSCKYHLVFFYRVLVW: “inactive”.
Consider YGNFF, for which the amyloid nucleation score result is “inactive”.
The same measure for ELSYDRSKYSINSLWLGIPI: “inactive”; for TLFQSFRELLRNGVFCLRTM: “inactive”; for LRCHLRKGSRISRSL: “inactive”.
For YIAGFQFCSIIFQRRTVQLL, the amyloid nucleation score result is “inactive”.
Regarding YVMHWSVAEVLRSLCVNHVR, the amyloid nucleation score entry was “inactive”.
YIYEEASK: the amyloid nucleation score result is “inactive”.
Take LINVELYLPGLRRIWAPSSG: the amyloid nucleation score was 0.221 ± 0.54.
Regarding KEMGW, the amyloid nucleation score result is “inactive”.
Consider LSISIMWCFIFGYIFMCSRC, for which the amyloid nucleation score result is “inactive”.
The same measure for MRYSFRCF: “inactive”; for SGMLKLSWVVW: 0.667 ± 0.22; for FLLCHYCFFVDTPGRIFYYS: 0.724 ± 0.18.
MSYSGTAHGDFLLRSCPARM: the amyloid nucleation score result was “inactive”.
Take FCRLWVRVSSDTFYYSFSGN: the amyloid nucleation score is 0.537 ± 0.47.
NWWIRGS: the amyloid nucleation score was -0.185 ± 0.82.
Take LDRKFGLRYNGTSYTCDSMV: the amyloid nucleation score entry is “inactive”.
The same measure for PGIPGPQLIYRDTILTLECM: 0.03 ± 0.88.
EVTSYVVFSFLIFTSMFHCK came in with an amyloid nucleation score of -0.464 ± 0.36.
On to VVGIKV, for which the amyloid nucleation score entry is “inactive”.
As for RGMWSFHGYWRTGKYMATGG, the amyloid nucleation score entry was “inactive”.
As to IAFATFVVTFIMMEEMFFKN, the amyloid nucleation score entry is “inactive”.
In the case of ACSDFSE, the amyloid nucleation score entry was “inactive”.
Turning to TVSTNDFSL, the amyloid nucleation score is -0.61 ± 0.9.
The same measure for IVMKALNAFWTRTMLMFHHM: “inactive”.
On to RKLSAHLQEGD, for which the amyloid nucleation score result was “inactive”.
For the substance QGGNAISRYKWDCIR, the amyloid nucleation score entry is “inactive”.
Next, HRKKYFLSPIVGPRTPRLCT: “inactive”.
Next, QWIGISNRLLYKDWLNWRYE: “inactive”; LNLAKQCMLPSFPSYMVWYF: “inactive”; GVNDRGDENGVVGA: “inactive”.
Next, SWYYLQFIFMDFMINFCVME: “inactive”.
As for CMLSDVIFYIVDDIRMFVGV, the amyloid nucleation score result is “inactive”.
For the substance VFAMLLDMFDCARQWPAIPL, the amyloid nucleation score entry is “inactive”.
The same measure for RHCGRALCDWLVIRWGSGYT: “inactive”.
The same measure for GRYVCRL: -0.459 ± 0.9; for YQYCSISKHVFEWYGTSWMG: “inactive”; for VGKYAGCCLKRPSLDAMGHV: “inactive”.
RISVAGLCASEAVAKCLRRG: the amyloid nucleation score result was “inactive”.
The same measure for FGTLSQVHIH: “inactive”.
Regarding PYSIVSGPRIFYGCYHSFI, the amyloid nucleation score entry was “inactive”.
Substance SHSMM registered an amyloid nucleation score of -0.218 ± 0.66.
Next, VSRMARYRLLTYRSAFNSML: -0.605 ± 1.2; LRPVRYRLCVRFNWMCVRCK: -0.582 ± 0.95.
VDMSELVWIISPEVHTVSCS: the amyloid nucleation score entry is “inactive”.
As to YKWSLTTRRTVRHLRED, the amyloid nucleation score entry is “inactive”.
Consider THDSMHKCERMITPRGGCQQ, for which the amyloid nucleation score result is “inactive”.
IKSLFVGGFSLNVTPTHKGR returned an amyloid nucleation score of 1.57 ± 0.13.
As for YPGMQEYVLGWNVWREK, the amyloid nucleation score entry was “inactive”.
VNIYGCSYVLHPGCCNGESR registered an amyloid nucleation score of 2.84 ± 0.073.
For the substance GFETLYIYAVRGN, the amyloid nucleation score entry is “inactive”.
Next, LFFKP: “inactive”; DLMLWKNFSLFTRESRGFAN: “inactive”; IQWMLCAKANLIEYKGVFFI: “inactive”.
Consider DDRDSNSVTLDNSWSYSITV, for which the amyloid nucleation score result is “inactive”.
CLYFY showed an amyloid nucleation score of 1.93 ± 0.1.
On to SKVQVIFLSSFFGTIQLWVL, for which the amyloid nucleation score result is “inactive”.
The same measure for LCTNLYWVQFIMEPEEGVIQ: 1.54 ± 0.082; for RGHNRRMYTWRVCRPSHHCK: “inactive”; for SMADPRFQESYEDRETYSIS: “inactive”.
For NKVVAKHGFGVRSFKIWGLD, the amyloid nucleation score result is “inactive”.
EKFNCNVFIANWAK returned an amyloid nucleation score of 0.358 ± 0.36.
With NYRAPMCCELFNKWVF, the amyloid nucleation score result was “inactive”.
Consider IYCYRLALF, for which the amyloid nucleation score entry was “inactive”.
In the case of LQFPPNLSMLCKVTQPSNNW, the amyloid nucleation score entry was “inactive”.
With FHLYNVW, the amyloid nucleation score entry was “inactive”.
Consider LDFDVGI, for which the amyloid nucleation score entry was “inactive”.
Turning to DLFLKLSCDSRI, the amyloid nucleation score result is “inactive”.
NVRWLFLAVSCQL: the amyloid nucleation score entry was “inactive”.
Next, YWSNPYSYKFYEFMIHTALQ: “inactive”; VRSVRGADELDLICHRLSRN: “inactive”; YKTYKYERLCIFVLSQRESI: “inactive”.
Take FMGVT: the amyloid nucleation score entry is “inactive”.
The same measure for YNGYALRF: “inactive”; for SWLFGLCYF: 2.06 ± 0.085.
Substance HYKLSSMVSVYLLTIL gave an amyloid nucleation score of -0.307 ± 0.88.
For TCMSVNVFRGYIIAW, the amyloid nucleation score result is “inactive”.
The substance PMAELIWDLVLRLKLSNKKR had an amyloid nucleation score of 1.43 ± 0.074.
LVSERKAKNSRSGSLAFFRR: the amyloid nucleation score entry is “inactive”.
Turning to DIRCGFLHKQGPLTMRATEQ, the amyloid nucleation score result is “inactive”.
For SFGFALLGVVMRITAVRYPY, the amyloid nucleation score result is “inactive”.
In the case of ILLCRKYWFFRFTMVV, the amyloid nucleation score entry is “inactive”.
The same measure for YVFVRS: “inactive”; for FIRARLLRHHTLARNAYVLR: “inactive”.
Consider HKTLFIFS, for which the amyloid nucleation score entry is “inactive”.
On to AMIINLRMWYNLRIIIMGTR, for which the amyloid nucleation score result is “inactive”.
Regarding YVWIDTMGL, the amyloid nucleation score entry is “inactive”.
CCRDVYTEGDM: the amyloid nucleation score result was “inactive”.
In the case of MLLSSVPDCFSWMGLRFCGD, the amyloid nucleation score result was “inactive”.
RVFIDRDRP: the amyloid nucleation score entry was “inactive”.
Next, IRNFSLKPISSNLNSL: “inactive”.
For the substance YQYPVVDKRMYIFTTMFYFT, the amyloid nucleation score was found to be 2.57 ± 0.082.
As to EFKQSSWY, the amyloid nucleation score result was “inactive”.
Take YSESIFIV: the amyloid nucleation score result is “inactive”.
The same measure for RLFLGVGCMS: “inactive”; for FTTCMNYIRRLNRKAPNKCR: “inactive”; for NPRHGYLPTIIGLDHSIHDL: “inactive”.
On to WIRIVRELGRSVR, for which the amyloid nucleation score result is “inactive”.
Regarding SVVQIHAERYE, the amyloid nucleation score result is “inactive”.
On to RSFSNSDRMVSNLQFCYYFG, for which the amyloid nucleation score is 2.77 ± 0.053.
Next, CRFWGFDSSINEVGLMQNHL: “inactive”; LLLTDSMSHLRFSHNSCMQQ: 0.868 ± 0.17; NLWLKSFWSLRLFLRDL: 0.68 ± 0.23.
On to NITVHVNRMKFCCMYAESHD, for which the amyloid nucleation score entry was “inactive”.
